B1: Membrane protein (Human SARS coronavirus), P59596 (parent)
chain: MADNGTITVEELKQLLEQWNLVIGFLFLAWIMLLQFAYSNRNRFLYIIKLVFLWLLWPVTLACFVLAAVYRINWVTGGIAIAMACIVGLMWLSYFVASFRLFARTRSMWSFNPETNILLNVPLRGTIVTRPLMESELVIGAVIIRGHLRMAGHSLGRCDIKDLPKEITVATSRTLSYYKLGASQRVGTDSGFAAYNRYRIGNYKLNTDHAGSNDNIALLVQ

Variants of B1 are the subject of this assay. The note with it: with ncap_sars N.
Take L218A;L219A: the “effect of a mutation on the interaction” value was “with no effect”.

Values taken from IntAct's records for PubMed 23700447.
